Paper PMC10558600
Read-outs that look alike come from different tables or passages of the source.

Columns and labels:
[1] = molecular target: Aedes aegypti membrane-bound alkaline phosphatase (Aa-mALP) (Aedes aegypti); experiment: ELISA
[2] = molecular target: Aedes aegypti membrane-bound alkaline phosphatase (Aa-mALP) (Aedes aegypti); experiment: ELISA; remark: listed apart in the source

65 kDa trypsin-activated Cry4Ba-R203Q toxin (natural protein)
Kd [1]: 76.2 nM | Kd [2]: 76.5 nM
